Consider 1 protein from FireProtDB (doi:10.1021/bi9929958).

For this data set the following is noted: Homo sapiens; pH 7.8; Thermal; DSC; Potassium phosphate 20 mM; reversible: yes; whole UniProt chain shown.

B1: Superoxide dismutase [Mn], mitochondrial wild type, P04179 (protein)
chain: MLSRAVCGTSRQLAPVLGYLGSRQKHSLPDLPYDYGALEPHINAQIMQLHHSKHHAAYVNNLNVTEEKYQEALAKGDVTAQIALQPALKFNGGGHINHSIFWTNLSPNGGGEPKGELLEAIKRDFGSFDKFKEKLTAASVGVQGSGWGWLGFNKERGHLQIAACPNQDPLQGTTGLIPLLGIDVWEHAYYLQYKNVRPDYLKAIWNVINWENVTERYMACKK
In the case of B1, the midpoint of thermal melting (Tm) was 88.9 °C.
